Here are results for four molecules from patent US20220133913A1 (KOREA BASIC SCIENCE INSTITUTE, published 2022).

By koff is commonly meant the first-order rate constant of dissociation. Higher therefore signals a short-lived complex. Broadly, the Kd is the constant that tells how readily two partners part at equilibrium. A low value points to higher affinity. Usually kon stands for the rate constant with which the complex forms.

Assay [1] addresses T1, human αvβ3 integrin ITGAVB3 (human, UniProt P06756 31-992; P05106 27-718, limits assumed).
T1 construct: Recombinant heterodimer used as immunogen, ELISA coating and SPR ligand; also called A5B3; A5b3
Nature of the assay: phage ELISA, coated ITGAVB3, anti-M13-HRP, 490 nm; helper phage control. Background: An ELISA detects its analyte on a solid surface through an enzyme-linked reagent.

The target of assay [2] is T1, human αvβ3 integrin ITGAVB3. As to the kind of experiment: ELISA of soluble VHH (TG1 lysate), induced at 37 C, coated ITGAVB3.
For assay [3] the target is unchanged. Nature of the assay: ELISA of soluble VHH, induced at 37 C; coating not given.
For assay [4] the target is unchanged. Nature of the assay: ELISA of soluble VHH, induced at 30 C; coating not given.
For assay [5] the target is unchanged. As to the kind of experiment: ELISA of soluble VHH (TG1 lysate), induced at 30 C, coated ITGAVB3.
The target is the same in assay [6]. Nature of the assay: phage ELISA, coated ITGAVB3, anti-M13-HRP, 490 nm. As for the experimental part:
Further, in order to perform phage ELISA, 2.5 μg/mL to […] of a target protein and a control protein were coated at 4 degrees C. using a coating buffer, and the wells were washed 3 times with 200 μL washing buffer per well. The wells were blocked with 200 μL PBS-M for two hours at room temperature. The blocking buffer was removed and the plate was washed 6 times with the washing solution. Thereafter, 100 μL of phage solution was added to the washing buffer per well and incubation was executed at room temperature for 1 to 2 hours. Then, washing was performed 6 times with washing buffer. HRP-binding anti-M13 antibody (GE healthcare) was diluted with 1:5,000 blocking buffer. 100 μL of diluted conjugate was added onto each well, and incubation was performed at room temperature for 1 hour, and washing was carried out 6 times with washing buffer. The HRP substrate solution was prepared as follows: A stock solution of OPD was prepared by dissolving 22 mg OPD (Sigma) in 100 mL of […] sodium citrate (pH 4.0), and 36 μL 30% H₂O₂ was added to 21 mL of OPL stock solution immediately before the detection step. 100 μL of substrate solution was added to each well and incubation was performed for 30 minutes at room temperature. Plates were analyzed using a micro plate reader set at 490 nm.

For assay [7] the target is unchanged. As to the kind of experiment: SPR, αvβ3 integrin immobilised on a CMDH chip (Reichert SR7500DC), nanobody as analyte; fitted kd from the table box in the panel; the box prints no unit, s^-1 is from the head of Table 8, where the text prints this cell as 8.02(2)e4. As for the experimental part:
(§1) Specifically, a CMDH chip (Carboxymethyl Dextran Hydrogel Surface Sensor Chip, Reichert Technologies) coated with Dextran was mounted on an SPR equipment (Reichert SR7500DC system) to perform immobilization of αᵥβ₃ integrin antigen. Then, an analysis of the affinity of the selected antibody based on the concentration was performed.
(In general: In SPR one partner is held on a chip, and binding of the other changes the refractive index at the surface.)

For assay [8] the target is unchanged. As to the kind of experiment: SPR, αvβ3 integrin immobilised on CMDH chip, nanobody as analyte. As for the experimental part: as §1

T1 sequence (P06756 31-992 limits assumed, chain 1 of 2): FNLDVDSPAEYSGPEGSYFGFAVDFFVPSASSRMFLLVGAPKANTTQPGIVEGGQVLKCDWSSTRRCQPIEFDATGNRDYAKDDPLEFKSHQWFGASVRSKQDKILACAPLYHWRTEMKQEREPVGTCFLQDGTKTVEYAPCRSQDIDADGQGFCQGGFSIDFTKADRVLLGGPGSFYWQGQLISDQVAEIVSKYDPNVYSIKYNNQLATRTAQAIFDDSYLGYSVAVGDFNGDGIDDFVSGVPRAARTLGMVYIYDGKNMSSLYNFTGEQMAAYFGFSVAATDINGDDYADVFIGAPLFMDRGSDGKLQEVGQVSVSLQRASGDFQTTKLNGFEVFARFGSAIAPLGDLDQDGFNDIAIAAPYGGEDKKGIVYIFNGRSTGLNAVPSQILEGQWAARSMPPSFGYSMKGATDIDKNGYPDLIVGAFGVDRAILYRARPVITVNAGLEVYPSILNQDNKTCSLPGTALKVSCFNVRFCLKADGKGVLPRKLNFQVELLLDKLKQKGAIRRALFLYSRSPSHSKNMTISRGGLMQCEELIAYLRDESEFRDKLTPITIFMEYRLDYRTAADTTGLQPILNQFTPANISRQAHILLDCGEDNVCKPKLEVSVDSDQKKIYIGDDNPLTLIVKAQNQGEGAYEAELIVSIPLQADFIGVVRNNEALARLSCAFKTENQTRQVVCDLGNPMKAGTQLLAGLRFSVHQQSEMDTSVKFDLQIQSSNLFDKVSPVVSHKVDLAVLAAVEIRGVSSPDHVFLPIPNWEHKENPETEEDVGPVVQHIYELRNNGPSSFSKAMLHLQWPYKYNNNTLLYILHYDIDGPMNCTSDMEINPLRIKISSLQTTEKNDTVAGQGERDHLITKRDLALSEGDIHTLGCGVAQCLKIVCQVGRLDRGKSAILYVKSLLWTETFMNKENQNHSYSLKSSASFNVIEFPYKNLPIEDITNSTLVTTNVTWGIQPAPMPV
T1 sequence (P05106 27-718 limits assumed, chain 2 of 2): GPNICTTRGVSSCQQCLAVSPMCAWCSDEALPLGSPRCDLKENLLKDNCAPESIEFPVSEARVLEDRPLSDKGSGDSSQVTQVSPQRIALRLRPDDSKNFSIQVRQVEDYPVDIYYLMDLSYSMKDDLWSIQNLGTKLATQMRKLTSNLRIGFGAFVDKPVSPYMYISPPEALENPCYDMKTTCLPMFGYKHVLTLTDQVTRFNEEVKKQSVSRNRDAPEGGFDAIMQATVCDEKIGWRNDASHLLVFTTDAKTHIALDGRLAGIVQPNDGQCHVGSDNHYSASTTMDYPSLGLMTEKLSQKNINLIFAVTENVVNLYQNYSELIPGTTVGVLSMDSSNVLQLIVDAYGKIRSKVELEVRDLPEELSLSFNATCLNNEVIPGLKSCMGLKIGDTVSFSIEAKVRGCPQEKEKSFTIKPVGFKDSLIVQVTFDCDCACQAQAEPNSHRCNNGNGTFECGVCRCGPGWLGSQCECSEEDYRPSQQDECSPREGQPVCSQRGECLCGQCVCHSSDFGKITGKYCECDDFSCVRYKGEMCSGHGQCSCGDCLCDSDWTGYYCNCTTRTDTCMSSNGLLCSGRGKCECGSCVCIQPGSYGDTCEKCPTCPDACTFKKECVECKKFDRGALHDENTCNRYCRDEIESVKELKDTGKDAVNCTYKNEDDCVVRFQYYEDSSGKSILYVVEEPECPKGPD

As to M13KO7 helper phage, in assay [1], the OD490 turned out to be 0.09.

B1: VHH-23 (VHH)
VHH: HVQLVESGGGSVQTGGSLRLSCAASGYTSSTVYMAWFRQTPGKQREGVAAIYTGGGPTYYADSVKGRFTISQDNAKNTVYLQMNTLKPEDTAMYYCAADRYVYRLVTNWYRPSFYTYWGQGTQVTVSS
notes: also called clone 23
Turning to B1, the OD490 in assay [2] came out at 0.16; in assay [3] it was 0.113; in assay [4] it was 0.141; in assay [5], 0.179; in assay [6], 2.04.

B2: single-domain antibody VHH-25 containing lysin and His6 tags (VHH)
VHH: EVQLVESGGGSVQAGGSLRLSCVVSGYTCSVYDMIWYRQPPGKEREFVSLINSNGRTTYADSVKGRFTISQNNAKNTVYLQMNSLKPEDTAMYYCHAACYSPSRLNYWGQGTQVTVSS
notes: also called Nanobody #25-Lys; VHH-25-K1; not shown: C-terminal lysine tag and His6 tag with any linker
In assay [7], B2 gave a koff of 0.000802 s⁻¹. In assay [8], binding was put at a Kd of 4.64 nM, the koff turned out to be 0.000802 s⁻¹ and the kon was found to be 173000 M⁻¹ s⁻¹.

B3: VHH-25 (VHH)
VHH: B2 VHH
notes: also called clone 25
In the case of B3, the OD490 in assay [2] came to 2.03; in assay [3], 0.193; in assay [4], 1.05; in assay [5], 2.01; in assay [6] it was 2.03.
